Laboratory results published in article PMC3832974.

Molecular target: human alpha-thrombin (Homo sapiens, UniProt P00734;P00734 328-363;364-622)
Experiment: dot blot immunoenzymatic assay on cloth; 13.5 nM thrombin; UV cross-linked; PBS (0.01 M phosphate pH 7.4, 0.85% NaCl), 13.5 nM thrombin, 20 min, room temperature; aptamers (10 uM) spotted in 0.1 M Tris-HCl pH 8.0, 0.01 M MgCl2, 0.15 M N

B1: Apt 4 (ssDNA)
DNA: AGATGCCTGTCGAGCATGCTCTTTGGAGACAGTCCGTGGTAGGGCAGGTTGGGGTGACTTCGTGGAAGAAGCGAGACGGTGTAGCTAAACTGCTTTGTCGACGGG
  binding result: binds
